These results are taken from patent US20260008815A1, “CYCLIC PEPTIDE OR SALT THEREOF, AND USES THEREOF” (FUJIFILM Corporation, priority 2023, published 2026).

Bridge positions count the residues as written; N and C are the ends. Ends that are not written are not given here. COCH2 = acetyl group that carries the bridge

This assay deals with T1, Recombinant Human FGFR2 alpha (IIIc) Fc Chimera Protein (Homo sapiens, UniProt P21802).
T1 construct: Fc (chimera); purchased R&D systems 712-FR-050
T1 sequence (P21802 with tags, fused parts or gaps limits assumed): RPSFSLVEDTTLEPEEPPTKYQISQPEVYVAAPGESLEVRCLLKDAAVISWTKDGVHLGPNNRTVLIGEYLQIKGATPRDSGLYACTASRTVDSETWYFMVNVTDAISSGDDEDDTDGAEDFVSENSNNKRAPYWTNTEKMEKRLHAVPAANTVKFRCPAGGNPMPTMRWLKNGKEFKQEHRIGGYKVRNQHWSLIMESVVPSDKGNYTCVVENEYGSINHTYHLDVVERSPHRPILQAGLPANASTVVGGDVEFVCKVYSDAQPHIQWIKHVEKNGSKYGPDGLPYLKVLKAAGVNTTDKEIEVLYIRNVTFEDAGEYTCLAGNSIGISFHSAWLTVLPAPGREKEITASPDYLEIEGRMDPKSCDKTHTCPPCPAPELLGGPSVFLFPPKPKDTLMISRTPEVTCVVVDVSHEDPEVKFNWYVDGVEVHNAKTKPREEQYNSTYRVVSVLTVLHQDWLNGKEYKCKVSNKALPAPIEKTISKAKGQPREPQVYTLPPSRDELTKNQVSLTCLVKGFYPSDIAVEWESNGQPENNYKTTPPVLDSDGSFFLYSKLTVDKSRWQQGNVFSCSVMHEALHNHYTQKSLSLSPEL
Nature of the assay: ELISA binding affinity of enzymatically synthesized peptide to FGFR. The note with it: ELISA luminescence signal at 10 nmol/L peptide, SEQ ID NO: 47 at 10 nmol/L standardized to 1; enzyme synthesis product. Put shortly:
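FGFR2 alpha (IIIc) Fc chimera (5 ng/well) was immobilized, and Myc-tagged peptide was bound 3 h at room temperature, then detected with anti-Myc antibody (2 h) and chemiluminescent substrate. Signal was corrected against FGFR-free wells. Score A–D was the luminescence at 10 nmol/L peptide, normalized to cyclic peptide SEQ ID NO: 47.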
Background: ELISA stands for enzyme-linked immunosorbent assay.
On to “153 (YCLENYLDPEQYQYFIYFK(COCH2)Y; thioether 2-19 (inferred)) [compound 153]”, for which the “Evaluation result of binding affinity to FGFR” value (“Evaluation result” below) is “A (0.7 or more)”.
As for “154 (YCIENYLDPEQYQYFIYFK(COCH2)Y; thioether 2-19 (inferred)) [compound 154]”, the entry is “A (0.7 or more)”; as for “155 (YCVENYLDPEQYQYFIYFK(COCH2)Y; thioether 2-19 (inferred)) [compound 155]”, “A (0.7 or more)”; as for “156 (YCFENYLDPEQYQYFIYFK(COCH2)Y; thioether 2-19 (inferred)) [compound 156]”, “A (0.7 or more)”.
With “157 (YCYENYLDPEQYQYFIYFK(COCH2)Y; thioether 2-19 (inferred)) [compound 157]”, the “Evaluation result” value is “A (0.7 or more)”.
As to “158 (YCWENYLDPEQYQYFIYFK(COCH2)Y; thioether 2-19 (inferred)) [compound 158]”, the “Evaluation result” value is on record as “A (0.7 or more)”.
To “159 (YCNENYLDPEQYQYFIYFK(COCH2)Y; thioether 2-19 (inferred)) [compound 159]” belongs “A (0.7 or more)”.
As for “160 (YCQENYLDPEQYQYFIYFK(COCH2)Y; thioether 2-19 (inferred)) [compound 160]”, the entry is “A (0.7 or more)”.
To “161 (YCSENYLDPEQYQYFIYFK(COCH2)Y; thioether 2-19 (inferred)) [compound 161]” belongs “A (0.7 or more)”; to “162 (YCTENYLDPEQYQYFIYFK(COCH2)Y; thioether 2-19 (inferred)) [compound 162]”, “A (0.7 or more)”; to “163 (YCDENYLDPEQYQYFIYFK(COCH2)Y; thioether 2-19 (inferred)) [compound 163]”, “A (0.7 or more)”.
As to “164 (YCRENYLDPEQYQYFIYFK(COCH2)Y; thioether 2-19 (inferred)) [compound 164]”, the “Evaluation result” value is “A (0.7 or more)”.
Regarding “165 (YCHENYLDPEQYQYFIYFK(COCH2)Y; thioether 2-19 (inferred)) [compound 165]”, the “Evaluation result” value was “A (0.7 or more)”.
To “166 (YCEGNYLDPEQYQYFIYFK(COCH2)Y; thioether 2-19 (inferred)) [compound 166]” belongs “A (0.7 or more)”.
To “167 (YCEPNYLDPEQYQYFIYFK(COCH2)Y; thioether 2-19 (inferred)) [compound 167]” belongs “A (0.7 or more)”; to “168 (YCELNYLDPEQYQYFIYFK(COCH2)Y; thioether 2-19 (inferred)) [compound 168]”, “A (0.7 or more)”.
For the substance “169 (YCEINYLDPEQYQYFIYFK(COCH2)Y; thioether 2-19 (inferred)) [compound 169]”, the “Evaluation result” value is recorded as “A (0.7 or more)”.
“170 (YCEVNYLDPEQYQYFIYFK(COCH2)Y; thioether 2-19 (inferred)) [compound 170]”: the “Evaluation result” value is listed as “A (0.7 or more)”.
To “171 (YCEFNYLDPEQYQYFIYFK(COCH2)Y; thioether 2-19 (inferred)) [compound 171]” belongs “B (0.5 or more and less than 0.7)”; to “172 (YCEYNYLDPEQYQYFIYFK(COCH2)Y; thioether 2-19 (inferred)) [compound 172]”, “A (0.7 or more)”.
Consider “173 (YCEWNYLDPEQYQYFIYFK(COCH2)Y; thioether 2-19 (inferred)) [compound 173]”, for which the “Evaluation result” value is “A (0.7 or more)”.
To “174 (YCENNYLDPEQYQYFIYFK(COCH2)Y; thioether 2-19 (inferred)) [compound 174]” belongs “A (0.7 or more)”.
To “175 (YCEQNYLDPEQYQYFIYFK(COCH2)Y; thioether 2-19 (inferred)) [compound 175]” belongs “A (0.7 or more)”; to “176 (YCESNYLDPEQYQYFIYFK(COCH2)Y; thioether 2-19 (inferred)) [compound 176]”, “A (0.7 or more)”; to “177 (YCETNYLDPEQYQYFIYFK(COCH2)Y; thioether 2-19 (inferred)) [compound 177]”, “A (0.7 or more)”.
To “178 (YCEDNYLDPEQYQYFIYFK(COCH2)Y; thioether 2-19 (inferred)) [compound 178]” belongs “A (0.7 or more)”; to “179 (YCERNYLDPEQYQYFIYFK(COCH2)Y; thioether 2-19 (inferred)) [compound 179]”, “A (0.7 or more)”.
Regarding “180 (YCEHNYLDPEQYQYFIYFK(COCH2)Y; thioether 2-19 (inferred)) [compound 180]”, the “Evaluation result” value was “A (0.7 or more)”.
As for “181 (YCEEGYLDPEQYQYFIYFK(COCH2)Y; thioether 2-19 (inferred)) [compound 181]”, the entry is “B (0.5 or more and less than 0.7)”.
As for “182 (YCEEWYLDPEQYQYFIYFK(COCH2)Y; thioether 2-19 (inferred)) [compound 182]”, the entry is “C (0.1 or more and less than 0.5)”; as for “183 (YCEEQYLDPEQYQYFIYFK(COCH2)Y; thioether 2-19 (inferred)) [compound 183]”, “C (0.1 or more and less than 0.5)”; as for “184 (YCEESYLDPEQYQYFIYFK(COCH2)Y; thioether 2-19 (inferred)) [compound 184]”, “C (0.1 or more and less than 0.5)”.
As for “185 (YCEETYLDPEQYQYFIYFK(COCH2)Y; thioether 2-19 (inferred)) [compound 185]”, the entry is “C (0.1 or more and less than 0.5)”; as for “186 (YCEENLLDPEQYQYFIYFK(COCH2)Y; thioether 2-19 (inferred)) [compound 186]”, “C (0.1 or more and less than 0.5)”.
As for “187 (YCEENFLDPEQYQYFIYFK(COCH2)Y; thioether 2-19 (inferred)) [compound 187]”, the “Evaluation result” value was “A (0.7 or more)”.
To “188 (YCEENWLDPEQYQYFIYFK(COCH2)Y; thioether 2-19 (inferred)) [compound 188]” belongs “A (0.7 or more)”.
To “189 (YCEENNLDPEQYQYFIYFK(COCH2)Y; thioether 2-19 (inferred)) [compound 189]” belongs “B (0.5 or more and less than 0.7)”; to “190 (YCEENQLDPEQYQYFIYFK(COCH2)Y; thioether 2-19 (inferred)) [compound 190]”, “C (0.1 or more and less than 0.5)”; to “191 (YCEENSLDPEQYQYFIYFK(COCH2)Y; thioether 2-19 (inferred)) [compound 191]”, “C (0.1 or more and less than 0.5)”.
To “192 (YCEENDLDPEQYQYFIYFK(COCH2)Y; thioether 2-19 (inferred)) [compound 192]” belongs “C (0.1 or more and less than 0.5)”; to “193 (YCEENRLDPEQYQYFIYFK(COCH2)Y; thioether 2-19 (inferred)) [compound 193]”, “C (0.1 or more and less than 0.5)”; to “194 (YCEENHLDPEQYQYFIYFK(COCH2)Y; thioether 2-19 (inferred)) [compound 194]”, “A (0.7 or more)”.
Turning to “195 (YCEENYIDPEQYQYFIYFK(COCH2)Y; thioether 2-19 (inferred)) [compound 195]”, the “Evaluation result” value is “A (0.7 or more)”.
To “196 (YCEENYVDPEQYQYFIYFK(COCH2)Y; thioether 2-19 (inferred)) [compound 196]” belongs “A (0.7 or more)”; to “197 (YCEENYFDPEQYQYFIYFK(COCH2)Y; thioether 2-19 (inferred)) [compound 197]”, “A (0.7 or more)”; to “198 (YCEENYYDPEQYQYFIYFK(COCH2)Y; thioether 2-19 (inferred)) [compound 198]”, “A (0.7 or more)”.
To “199 (YCEENYWDPEQYQYFIYFK(COCH2)Y; thioether 2-19 (inferred)) [compound 199]” belongs “A (0.7 or more)”; to “200 (YCEENYNDPEQYQYFIYFK(COCH2)Y; thioether 2-19 (inferred)) [compound 200]”, “C (0.1 or more and less than 0.5)”.
As for “201 (YCEENYQDPEQYQYFIYFK(COCH2)Y; thioether 2-19 (inferred)) [compound 201]”, the entry is “A (0.7 or more)”; as for “202 (YCEENYSDPEQYQYFIYFK(COCH2)Y; thioether 2-19 (inferred)) [compound 202]”, “B (0.5 or more and less than 0.7)”; as for “203 (YCEENYTDPEQYQYFIYFK(COCH2)Y; thioether 2-19 (inferred)) [compound 203]”, “A (0.7 or more)”.
As for “204 (YCEENYEDPEQYQYFIYFK(COCH2)Y; thioether 2-19 (inferred)) [compound 204]”, the “Evaluation result” value is “C (0.1 or more and less than 0.5)”.
As for “205 (YCEENYRDPEQYQYFIYFK(COCH2)Y; thioether 2-19 (inferred)) [compound 205]”, the entry is “A (0.7 or more)”.
